Laboratory results published in paper PMC11033462.

How the values were obtained:
[1] = target: PLAA p.Ile609Thr, Myc-tagged (human) (UniProt Q9Y263); assay: co-IP; Myc-PLAA overexpressed in HEK293T, captured from cleared lysate on Myc-beads (4°C, 2 h), eluate probed by western blot (anti-VCP, anti-SAKS1, anti-MYC); p97 band divided by the Myc-PLAA band
[2] = target: PLAA p.Leu795Met, Myc-tagged (human) (UniProt Q9Y263); assay: as above
[3] = target: PLAA p.Ile609Thr, Myc-tagged (human) (UniProt Q9Y263); assay: affinity purification with mass spectrometry; Myc-PLAA overexpressed in HEK293T, captured from cleared lysate on Myc-beads (20 mM HEPES pH 7.5, 100 mM NaCl, 0.2% n-dodecyl-β-D-maltoside, 4°C, 2 h), eluted with 10 M urea, LC-MS/MS; cut off 5-fold enrichment over untransfected controls; protein abundance as a ratio to PLAA
[4] = target: PLAA p.Leu795Met, Myc-tagged (human) (UniProt Q9Y263); assay: as above

percent decrease of p97 in the IP (ratio to PLAA) against WT PLAA [1]: 80%
percent decrease of p97 in the IP (ratio to PLAA) against WT PLAA [2]: 50%
percent decrease of p97 in the IP (ratio to PLAA) against WT PLAA [3]: 50%
percent decrease of p97 in the IP (ratio to PLAA) against WT PLAA [4]: 20%
Substance: VCP/p97 (from UniProt P55072 1-806) (natural protein)
